Results from paper PMC9850916.

Target: mutant human FcγRIIIa (V158) ectodomain (amino acid residues 1–175) with nine amino acid mutations a (human)
Assay: SPR

## Expi293-derived adalimumab (antibody)
  Kd: 1550 nM
  koff: 0.062 s⁻¹
  kon: 40000 M⁻¹ s⁻¹
